Source: US20250346673A1 (DUALITY BIOLOGICS SUZHOU, published 2025)
Numbering of substitutions follows the chain as printed.

Experiments:
Recombinant Human BDCA2 = molecular target: T1, Recombinant Human BDCA2 (human, UniProt Q8WTT0 45-213, limits assumed); assay: SPR (BIAcore), antibody captured by anti-human IgG (Fc), hBDCA2 as analyte, 1:1 model
T1 construct: also called hBDCA2 (SPR analyte); human BDCA2 antigen
T1 sequence (looked up): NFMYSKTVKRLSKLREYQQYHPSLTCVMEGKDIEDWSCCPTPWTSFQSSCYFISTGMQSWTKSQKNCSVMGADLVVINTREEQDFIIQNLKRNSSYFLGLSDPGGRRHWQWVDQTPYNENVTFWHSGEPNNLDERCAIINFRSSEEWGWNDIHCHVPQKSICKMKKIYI
Description: Then 1 M ethanolamine was injected at 10 μL/min flow rate for 420 seconds, and the excess active carboxyl groups on chip were blocked. The humanized antibodies were injected into a detection channel flow cell at flow rate of 10 μL/min for 60 s for capture after diluting to 1 μg/mL using running buffer. […] The sample hBDCA2 to be tested of each concentration gradient was injected into the detection channel at 30 μL/min flow rate, two samples at 0 concentration were used to remove background signal. The binding and dissociation times between antigen and antibody were 180 and 400 sec, respectively. An analysis of data was performed using Biacore Insight Evaluation Software (Version 2.0. 15.12933). A 1:1 binding model was selected for curve fitting and kinetic parameters were calculated after subtraction of signal of the reference channel (flow cell 1) and at 0 concentration.

human BDCA2 [1] = molecular target: T2, human BDCA2 (human, UniProt Q8WTT0 1-213); assay: FACS, CHOK1-humanBDCA2 cells
T2 construct: whole, on cells; also called hBDCA2; Blood dendritic cell antigen 2
T2 sequence (looked up): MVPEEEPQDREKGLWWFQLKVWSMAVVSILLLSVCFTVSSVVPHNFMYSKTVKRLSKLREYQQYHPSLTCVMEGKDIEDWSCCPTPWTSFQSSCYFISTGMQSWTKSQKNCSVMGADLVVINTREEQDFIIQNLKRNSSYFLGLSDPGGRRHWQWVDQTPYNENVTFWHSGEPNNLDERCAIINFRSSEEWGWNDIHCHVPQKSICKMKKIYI
Description: (§1) The cells were recovered and resuspended to 2×10⁶/mL with FACS buffer (PBS+2% FBS). The resuspended cells were added to 3799 cell plates at 100 μL/well, and the supernatant was discarded after centrifugation at 300 g. […] The cells were incubated at 4° C. for 1 h. The incubated cells were centrifuged at […] for 5 min and washed twice with FACS buffer. 100 μL Goat anti-Human IgG (H+L) Cross-Adsorbed Secondary Antibody, Alexa Fluor 488 (Sigma, A11013; 1:1000) secondary antibody was added, washed twice with FACS buffer after incubation at 4° C. for 1 h. The cells were resuspended with PBS, then the fluorescence signal of antibodies bound to cell surface was analyzed with FACS (BD FACS CantoTM II) instrument and curves were fitted with GraphPad Prism6 to calculate EC₅₀ values for antibodies binding to BDCA2 antigen.

human BDCA2 [2] = molecular target: T2, human BDCA2; assay: cell-based or functional assay
cynomolgus BDCA2 [3] = molecular target: T3, cynomolgus BDCA2 (cynomolgus monkey, UniProt A0A2K5UWP4 1-212); assay: FACS, 293F-cynoBDCA2 cells
T3 construct: whole, on cells; also called Cyno BDCA2; cynoBDCA2
T3 sequence: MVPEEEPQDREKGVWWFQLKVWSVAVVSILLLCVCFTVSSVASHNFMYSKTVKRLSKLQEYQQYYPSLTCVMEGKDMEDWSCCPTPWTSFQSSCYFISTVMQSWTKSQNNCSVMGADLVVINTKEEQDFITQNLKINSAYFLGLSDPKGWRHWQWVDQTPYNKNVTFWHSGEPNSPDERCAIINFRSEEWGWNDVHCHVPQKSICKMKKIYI
Description: as §1

human BDCA2 [4] = molecular target: T2, human BDCA2; assay: FACS on CHOK1-hBDCA2 cells; EC50 table beside the plot, unit from the x axis (nM) [continued) c.]
Description: (§2) The cells were recovered and resuspended to 2×10⁶/mL with FACS buffer (PBS+2% FBS). The cells were added to 3799 cell plates (Corning) at 100 μL/well, and the supernatant was discarded after centrifugation at 300 g. The antibodies were serially diluted with FACS buffer (Id.), the diluted antibodies were added to centrifuged cells and the cells were resuspended. The cells were incubated at 4° C. for 1 h. The incubated cells were centrifuged at 300 g for 5 min and washed twice with FACS buffer. 100 μL […] anti-Human IgG (H+L) Cross-Adsorbed Secondary Antibody-Alexa Fluor 488 (Sigma, A11013; 1:1000) secondary antibody was added, washed twice with FACS buffer after incubation at 4° C. for 1 h, resuspended with PBS, analyzed with FACS (BD FACS CantoTM II) instrument and curve fitted with GraphPad Prism6, and EC₅₀ values were calculated.

human BDCA2 [5] = molecular target: T2, human BDCA2; assay: cell-based or functional assay; remark: listed apart in the source
human BDCA2 [6] = molecular target: T2, human BDCA2; assay: FACS, CHOK1-humanBDCA2 cells; remark: listed apart in the source
Description: as §1

cynomolgus BDCA2 [7] = molecular target: T3, cynomolgus BDCA2; assay: FACS, 293F-cynoBDCA2 cells; remark: listed apart in the source
human BDCA2 [8] = molecular target: T2, human BDCA2; assay: FACS on CHOK1-hBDCA2 cells; EC50 table under the plot, unit from the x axis (nM)
Description: as §2

B1: mab033c (antibody, V domains shown)
VH: EVQMVESGGDLVKPGDSLKLSCAASGFTFRSYGMSWVRQTPDKRLEWVATISSGDSYTYYPDSVKGRFTISRDNAKNTLYLQMSSLKSEDTALYYCARQIYYDYAYYFDFWGQGTTLTVSS
VL: DIVLTQSPASLAVSLGQRATISCRASESVSFRTSHLMHWYQQKPGQPPKLLIYGASNLESGVPARFSGSGSETDFTLNIHPVEEEDAAAYFCQQSIEDPPTFGGGTKLEIK
Work on B1 yielded a Kd (Recombinant Human BDCA2) of 0.11 nM, a koff (Recombinant Human BDCA2) of 7.67e-05 s⁻¹ and a kon (Recombinant Human BDCA2) of 698000 M⁻¹ s⁻¹. The EC50 (human BDCA2 [1]) was 0.26 nM, the “EC50 (nM), inhibition of CpG-A stimulated IFNα release from human PBMC” value (human BDCA2 [2]) was 0.02 nM and the EC50 (cynomolgus BDCA2 [3]) was 0.56 nM. For the same binder, the EC50 (human BDCA2 [4]) was 0.277 nM and the “IC50, inhibition of IFNα secretion, CpG-A stimulated human PBMC” value (human BDCA2 [5]) was 0.00833 nM.

B2: Hu005-07 (antibody, IgG1, V domains shown)
VH: QVQLQESGPGLVKPSETLSLTCTVSGGSITNYGVHWIRQPPGKGLEWIGVIWSGESTDYDAAFISRVTISKDNSKNQVSLKLSSVTAADTAVYYCARRRSHYYGYVMDYWGQGTTVTVSS
VL: DIVLTQSPASLAVSPGQRATITCKASQSIDYDAIGYLNWYQHKPGQPPKLLIYAASNLESGVPARFSGSGSGTDFTLTINPVEANDTANYYCQQSNEDPPTFGQGTKLEIK
notes: Humanized IgG1; also called hu005-07(BM5)
For B2, the EC50 (human BDCA2 [6]) was 2 nM and the binding result (cynomolgus BDCA2 [7]) was “binds”.

B3: Hu005-04 (antibody, human IgG1, kappa, V domains shown)
VH: B2 VH with E6Q, I29L
VL: DIVLTQSPASLAVSPGQRATITCKASQSIDYDAIGYLNWYQQKPGQPPKLLIYAASNLESGVPARFSGSGSGTDFTLTINPVEANDTANYYCQQSNEDPPTFGQGTKLEIKR
notes: Humanized IgG1; also called hu005-04(BM6)
For B3, the EC50 (human BDCA2 [6]) was 2.3 nM and the binding result (cynomolgus BDCA2 [7]) was “binds”.

B4: Hu005-24 (antibody, IgG1, V domains shown)
VH: B2 VH with E6Q, I29L
VL: DIQMTQSPSSLSASVGDRVTITCKASQSIDYDAIGYLNWYQQKPGKAPKLLIYAASNLESGVPSRFSGSGSGTDFTLTISSLQPEDFATYYCQQSNEDPPTFGQGTKLEIK
notes: Humanized IgG1; also called hu005-24(BM6)
With B4 the EC50 (human BDCA2 [6]) was 1.9 nM and the binding result (cynomolgus BDCA2 [7]) was “binds”.

B5: Hu005-08 (antibody, IgG1, V domains shown)
VH: B2 VH with E6Q, I29L
VL: B2 VL
notes: Humanized IgG1; also called hu005-08(BM7)
B5 was tested, and the EC50 (human BDCA2 [6]) was 2.3 nM and the binding result (cynomolgus BDCA2 [7]) was “binds”.

B6: Hu005-03 (antibody, IgG1, V domains shown)
VH: B2 VH
VL: B2 VL with H42Q
notes: Humanized IgG1; also called hu005-03(BM4)
With B6 the EC50 (human BDCA2 [6]) was 2.1 nM and the binding result (cynomolgus BDCA2 [7]) was “binds”.

B7: mab030c (antibody, V domains shown)
VH: DVQLQESGPGLVKPSQSLSLTCSVTGYSITSAYYWNWIRQFPGNKLECMGYISYDGSNYYNPSLKNRISITRDTSKNQFFLSLNSVTTEDTATYFCVRGGDYDDGGFAYWGQGTLVTVSA
VL: DIQMTQSPASLSASVGETVTITCRASGNIHNYLAWYQQKQGKSPQLLVYNAKTLADGVPSRFSGSGSETQYSLKINSLQPEDFGNYFCQHFWIIPYTFGGGTKLEIK
In the case of B7, the EC50 (human BDCA2 [4]) is reported as 0.583 nM and the “IC50, inhibition of IFNα secretion, CpG-A stimulated human PBMC” value (human BDCA2 [5]) is reported as 0.0164 nM.

B8: mab016c (antibody, V domains shown)
VH: QVQLKQSGPGLVQPSQSLSITCTVSGFSLTSYGVHWVRQSPGKGLEWLGVIWSGESTDYDAAFISRLSISKDNSKSQVFFRMNSLQADDSAIYYCARRRSHYYGYVMDYWGQGTSVTVSS
VL: DIVLTQSPASLAVSLGQRATISCKASQSVDYDGVGYLNWYQHKPGQPPKLLIYAASNLESGIPARFSGSGSGTDFTLNIHPVEEEDAATYYCQQSNEDPPTFGSGTKLEIK
B8 was tested, and the EC50 (human BDCA2 [8]) was 0.977 nM.

B9: mab002c (antibody, V domains shown)
VH: QIQLVQSGPELKKPGETVKISCRASGYSFTDYSMHWVKQAPGKGLKWVGWINTETGEPTYADDFKGRFALSLETSATSAYLQINNLKNEDTATYFCARGGDGFPYWYFNVWGAGTTVTVSS
VL: DIVLTQSPTSLAVSLGQRTNISCRASQSVSTSSNSYIHWYQQKPGQPPKLLIKYASNLDSGVPARFSGSGSGTDFTLNIHPVEEEDTSTYYCQHSWEIPFTFGSGTKLEIK
B9 was tested, and the EC50 (human BDCA2 [8]) was 1.61 nM.
